Measured values from patent US20200397913A1, “AXL-SPECIFIC ANTIBODY-DRUG CONJUGATES FOR CANCER TREATMENT” (GENMAB A/S, priority 2015, published 2020).
Where a chain is given by its changes, count along the chain named. Names may count otherwise. Marks after values point to notes of the source that are not given here.

Tests used:
[1] = biological target: T1, human AXL with a mouse ECD (Mus musculus, UniProt Q00993, A791T/A867T/C878S/D603E/D853E/E609A/F637Y/G606S/G869S/H824Y/L452V/L825P/L872Q/P881A/R785Q/R828P/S823G/S856P/S873P/T871A/V766A); test: Flow cytometry binding to HEK293T cells transfected with human AXL with mouse ECD; conditions: 0.0024-10 μg/mL
T1 construct: aa 1-441); expressed in transfected cells; host or cells: HEK293T

[2] = biological target: Gas6 binding to AXL on A431 cells (Homo sapiens, UniProt P30530); test: Gas6 binding to A431 cells pre-incubated with AXL antibodies; design: endogenous in cells; host or cells: A431; conditions: pre-incubation with 10 μg/mL antibody; control antibody b12
Procedure: Alternatively, A431 cells were pre-incubated with 10 μg/mL AXL antibodies (15 minutes, 4° C.) to assess if the AXL ligand Gas6 could still bind in presence of AXL antibodies. […] After washing three times in PBS/0.1% BSA/0.02% azide, cells were incubated with mouse anti-Gas6 IgG2a (R&D Systems; cat no. MAB885) at 4° C. for 30 min. After washing three times in PBS/0.1% BSA/0.02% azide, cells were incubated with FITC-labelled goat anti-mouse IgG (Dako, Heverlee, Belgium; cat no. F049702) at 4° C. for 30 min in the dark. Next, cells were washed twice in PBS/0.1% BSA/0.02% azide, resuspended in 120 μL PBS/0.1% BSA/0.02% azide and analyzed on a FACS Cantoll (BD Biosciences).
(§1) Binding curves were analyzed using non-linear regression (sigmoidal dose-response with variable slope) using GraphPad Prism V5.04 software (GraphPad Software, San Diego, Calif., USA).
Therefore, binding of Gas6 to A431 cells that had been pre-incubated with 10 μg/mL AXL antibodies was tested as described in Example 2.

[3] = biological target: T2, human AXL with a cynomolgus monkey extracellular domain (ECD) (Homo sapiens, UniProt P30530, P441T/S191N/S285L/T105A/T112A/T125N/T443A); test: Flow cytometry binding to HEK293T cells transfected with human AXL with cynomolgus ECD; conditions: at least 3 experiments
T2 construct: aa 1-447); expressed in transfected cells; host or cells: HEK293T

[4] = system: MDA-MB-231 and Calu-1 cells; test: Internalization of cell surface bound HuMab-AXL by flow cytometry; assay type: cell-based, human; conditions: 1 hour 4° C, then overnight 37° C versus 4° C
Procedure: Internalization of cell surface bound HuMab-AXL antibodies to MDA-MB-231 and Calu-1 cells (human lung carcinoma cell line; ATCC, catalognumber HTB-54) was evaluated by flow cytometry. 50,000 cells were seeded in 96-well tissue culture plates and allowed to attach for 6 hrs at 37° C. Plates were incubated at 4° C. for 30 minutes before incubation with serial dilutions of AXL-antibodies (final concentration range 0.0032-10 μg/mL) at 4° C. for 1 hour. Subsequently, the medium was replaced by tissue culture medium without antibody and cells were incubated overnight (16-18 hours) at 37° C. or 4° C. […] Finally, cells were washed twice in PBS/0.1% BSA/0.02% azide, resuspended in 120 μL PBS/0.1% BSA/0.02% azide and analyzed on a FACS Cantoll (BD Biosciences).
as §1

[5] = biological target: T3, AXLECDHis (extracellular domain of human AXL) (Homo sapiens, UniProt P30530); test: Binding affinity by Bio-Layer Interferometry (Octet); conditions: for Kdis / Kon: soluble AXLECDHis, 30° C, 1:1 model
T3 construct: the extracellular domain (ECD) of human AXL (aa 1-447) with a C-terminal His tag (AXLECDHis); His tag (C); made in house; host or cells: HEK-293F

AXL on A431 cells = biological target: T4, AXL on A431 cells (Homo sapiens, UniProt P30530); test: Antibody binding to A431 cells with or without Gas6 pre-incubation; conditions: for Antibody binding to A431 cells: EC50 w/o Gas6 mean (s.d.): no Gas6 pre-incubation; for Antibody binding to A431 cells: EC50 in presence of Gas6 mean (s.d.): pre-incubation with 10 μg/mL Gas6
T4 construct: AXL-positive A431 cells were incubated; endogenous in cells; host or cells: A431

human AXL = biological target: T5, human AXL (Homo sapiens, UniProt P30530); test: Flow cytometry binding to HEK293T cells transfected with full length human AXL; conditions: at least 3 experiments
T5 construct: expression constructs for full length human AXL; expressed in transfected cells; host or cells: HEK293T

[6] = biological target: T6, human AXL transiently expressed by HEK-293F cells (Homo sapiens, UniProt P30530); test: Homogeneous antigen specific screening assay (FMAT); conditions: binding to human AXL on HEK-293F cells
T6 construct: HEK-293F cells transiently expressing full length human AXL; expressed in transfected cells; host or cells: HEK-293F

T1 sequence (Q00993 19-888 with the stated changes): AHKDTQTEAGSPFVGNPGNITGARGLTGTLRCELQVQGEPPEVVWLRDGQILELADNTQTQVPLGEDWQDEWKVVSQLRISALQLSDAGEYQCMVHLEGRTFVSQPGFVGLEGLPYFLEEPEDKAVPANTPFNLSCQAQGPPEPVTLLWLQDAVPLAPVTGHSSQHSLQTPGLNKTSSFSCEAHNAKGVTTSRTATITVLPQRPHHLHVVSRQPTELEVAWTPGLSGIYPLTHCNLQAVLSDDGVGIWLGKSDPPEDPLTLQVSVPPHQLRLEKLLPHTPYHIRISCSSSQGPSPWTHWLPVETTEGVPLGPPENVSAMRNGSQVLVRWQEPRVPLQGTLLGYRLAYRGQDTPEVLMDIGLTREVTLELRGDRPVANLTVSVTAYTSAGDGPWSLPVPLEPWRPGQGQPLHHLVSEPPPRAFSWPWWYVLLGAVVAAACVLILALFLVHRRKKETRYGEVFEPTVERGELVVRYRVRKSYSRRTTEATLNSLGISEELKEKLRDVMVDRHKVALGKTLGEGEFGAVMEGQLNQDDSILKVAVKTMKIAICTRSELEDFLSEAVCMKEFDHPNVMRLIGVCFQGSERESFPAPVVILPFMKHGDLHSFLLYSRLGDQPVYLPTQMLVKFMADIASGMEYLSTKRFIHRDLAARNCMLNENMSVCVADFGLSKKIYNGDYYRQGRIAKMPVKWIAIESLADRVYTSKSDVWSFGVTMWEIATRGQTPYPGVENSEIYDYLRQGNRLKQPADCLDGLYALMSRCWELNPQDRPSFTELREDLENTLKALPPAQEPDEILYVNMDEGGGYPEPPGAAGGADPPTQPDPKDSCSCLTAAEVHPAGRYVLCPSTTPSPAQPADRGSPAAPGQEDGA

B1: IgG1-AXL-733: human IgG1,κ anti-AXL antibody, VH SEQ ID NO:34, VL SEQ ID NO:35; FN1 domain binding (antibody, V domains shown)
VH: QVQLVESGGGVVQPGRSLRLSCAASGFSFSTYAMHWVRQAPGKGLEWVAVISYDGDNKYSADSVKGRFTISRDNSKNTLYLQMNSLRAEDTAVYYCARGRKLGIDAFDIWGQGTMVTVSS
VL: AIQLTQSPSSLSASVGDRVTITCRASQGISSALAWYQQKPGKAPKLLIYDASSLESGVPSRFSGSGSGTDFTLTISGLQPEDFATYYCQQFNSYPFTFGPGTKVDIK
modifications: homo sapiens
- binding to AXL with a mouse ECD [1]: low
- Gas6 binding: Maximal binding in presence of AXL antibodies (% of binding in presence of control antibody) [2]: 96%
- Binding EC50 cynomolgus AXL Average (s.d.) [3]: 0.254 (0.114) μg/mL
- internalization of membrane-bound antibody [4]: internalize
- Kdis [5]: 0.0097 s⁻¹
- Kon [5]: 160000 M⁻¹ s⁻¹
- Antibody binding to A431 cells: EC50 w/o Gas6 mean (s.d.) (AXL on A431 cells): 0.49 (0.51) μg/mL
- Antibody binding to A431 cells: EC50 in presence of Gas6 mean (s.d.) (AXL on A431 cells): 0.62 (0.23) μg/mL
- Binding EC50 human AXL Average (s.d.) (human AXL): 0.176 (0.094) μg/mL

B2: IgG1-AXL-511: human IgG1,κ anti-AXL antibody, VH SEQ ID NO:136, VL SEQ ID NO:140; Ig2 domain binding (antibody, V domains shown)
VH: EVQLLESGGGLVQPGGSLRLSCAASGFTFSSYAMNWVRQAPGKGLEWVSGISGSGGHTYHADSVKGRFTISRDNSKNTLYLQMNSLRAEDTAVYYCAKDRYDILTGYYNLLDYWGQGTLVTVSS
VL: DIQMTQSPSSLSASVGDRVTITCRASQGISSWLAWYQQKPEEAPKSLIYAASSLQSGVPSRFSGSGSGTDFTLTISSLQPEDFATYYCQQYNSYPLTFGGGAKVEIK
modifications: homo sapiens
- Gas6 binding: Maximal binding in presence of AXL antibodies (% of binding in presence of control antibody) [2]: 113%
- internalization of membrane-bound antibody [4]: internalize
- Kdis [5]: 0.0039 s⁻¹
- Kon [5]: 170000 M⁻¹ s⁻¹
- Antibody binding to A431 cells: EC50 w/o Gas6 mean (s.d.) (AXL on A431 cells): 0.12 (0.11) μg/mL
- Antibody binding to A431 cells: EC50 in presence of Gas6 mean (s.d.) (AXL on A431 cells): 0.30 (0.31) μg/mL

B3: IgG1-AXL-726: human IgG1,κ anti-AXL antibody, VH SEQ ID NO:31, VL SEQ ID NO:33; FN2 domain binding (antibody, V domains shown)
VH: QVQLQQWGAGLLKPSETLSLTCAIDGGSFSGYYWSWIRQPPGKGLEWIGEISHSGRTNYNPSLKSRVTISIDTSKNQFSLKLSSVAAADTAVYYCARFITMIRGAIITHFDYWGQGALVTVSS
VL: B2 VL with E42K, N92H, L96Y, G100Q, A102T, V104L
modifications: homo sapiens
- binding to AXL with a mouse ECD [1]: not detectable
- Maximal binding [6]: 3154 Arbitrary units
- Gas6 binding: Maximal binding in presence of AXL antibodies (% of binding in presence of control antibody) [2]: 98%
- Binding EC50 cynomolgus AXL Average (s.d.) [3]: 0.349 (0.160) μg/mL
- Kdis [5]: 0.00013 s⁻¹
- Kon [5]: 240000 M⁻¹ s⁻¹
- Antibody binding to A431 cells: EC50 w/o Gas6 mean (s.d.) (AXL on A431 cells): 0.32 (0.35) μg/mL
- Antibody binding to A431 cells: EC50 in presence of Gas6 mean (s.d.) (AXL on A431 cells): 0.55 (0.69) μg/mL
- Binding EC50 human AXL Average (s.d.) (human AXL): 0.288 (0.206) μg/mL

B4: IgG1-AXL-140: human IgG1,κ anti-AXL antibody, VH SEQ ID NO:3, VL SEQ ID NO:4 (antibody, V domains shown)
VH: EVQLLESGGGLVQPGGSLRLSCAASGFTFSSYAMTWVRQAPGKGLEWVSAISISGASTFYADSVKGRFTISRDNSKNTLSLQMNSLRAEDTAVYFCRGYSGYVYDAFDIWGQGTMVTVSS
VL: B2 VL with S31N, E42K, A102T
modifications: homo sapiens
- Maximal binding [6]: 2889 Arbitrary units

B5: IgG1-AXL-187: human IgG1,κ anti-AXL antibody, VH SEQ ID NO:19, VL SEQ ID NO:20 (antibody, V domains shown)
VH: B3 VH with Q3P, I24V, D25Y, Y33H, A86T, R97S, A105T, A117T
VL: B2 VL with E42K, N92H, L96Y, G100Q, A102T, V104L
modifications: homo sapiens
- Maximal binding [6]: 2563 Arbitrary units

B6: IgG1-AXL-183-N52Q: point mutant of IgG1-AXL-183, VH SEQ ID NO:17, VL SEQ ID NO:18 (antibody, V domains shown)
VH: QVQLQQWGAGLLKPSETLSLTCAVYGGSFSGYYWSWIRQPPGKGLEWIGEIQQSGSTNYNPSLKSRVTISVDTSKNQFSLKLSSVTAADTSVYYCASGNWDHFFDYWGQGTLVTVSS
VL: DIQMTQSPSSVSASVGDRVTITCRASQGISSWLAWYQHKPGKAPKLLIYATSSLQSGVTSRFSGSGSGTDFTLTISSLQPEDFATYYCQQAKSFPWTFGQGTKVEIK
modifications: homo sapiens
- binding to AXL with a mouse ECD [1]: low
- Binding EC50 cynomolgus AXL Average (s.d.) [3]: 0.324 (0.121) μg/mL
- internalization of membrane-bound antibody [4]: internalize
- dissociation rate, fold higher than wild-type IgG1-AXL-183 [5]: approximately 2.5 fold
- Kdis [5]: 0.001 s⁻¹
- Kon [5]: 42000 M⁻¹ s⁻¹
- Binding EC50 human AXL Average (s.d.) (human AXL): 0.350 (0.206) μg/mL

B7: IgG1-AXL-183: human IgG1,κ anti-AXL antibody, VH SEQ ID NO:16, VL SEQ ID NO:18; FN1 domain binding (antibody, V domains shown)
VH: B6 VH with Q52N
VL: B6 VL
modifications: homo sapiens
- binding to AXL with a mouse ECD [1]: low
- Gas6 binding: Maximal binding in presence of AXL antibodies (% of binding in presence of control antibody) [2]: 115%
- Binding EC50 cynomolgus AXL Average (s.d.) [3]: 0.309 (0.086) μg/mL
- Kdis [5]: 0.00042 s⁻¹
- Kon [5]: 41000 M⁻¹ s⁻¹
- Antibody binding to A431 cells: EC50 w/o Gas6 mean (s.d.) (AXL on A431 cells): 0.69 (0.72) μg/mL
- Antibody binding to A431 cells: EC50 in presence of Gas6 mean (s.d.) (AXL on A431 cells): 1.19 (1.11) μg/mL
- Binding EC50 human AXL Average (s.d.) (human AXL): 0.526 (0.177) μg/mL
